{"source": "patent US20240376226A1", "about": "(JANUX THERAPEUTICS, published 2024)", "target": "T1, CD3 (UniProt P07766 23-126)", "T1 construct": "also called CD3-biotin; CD3 biotin", "T1 sequence (P07766 23-126)": "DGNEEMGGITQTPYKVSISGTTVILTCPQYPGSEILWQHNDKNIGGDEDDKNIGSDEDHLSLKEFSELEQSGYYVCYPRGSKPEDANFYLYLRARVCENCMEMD", "assay": "ELISA, antibody titrated on captured antigen"}
{"binder": "SP34 (Ab-9, Ab-10) (antibody, mouse IgG1, V domains shown, used naked or chemically biotinylated; also called SP34-biotin) VH: EVQLVESGGGLVQPKGSLKLSCAASGFTFNTYAMNWVRQAPGKGLEWVARIRSKYNNYATYYADSVKDRFTISRDDSQSILYLQMNNLKTEDTAMYYCVRHGNFGNSYVSWFAYWGQGTLVTVSS VL: QAVVTQESALTTSPGETVTLTCRSSTGAVTTSNYANWVQEKPDHLFTGLIGGTNKRAPGVPARFSGSLIGDKAALTITGAQTEDEAIYFCALWYSNLWVFGGGTKLTVLQ", "values": [{"measurement": "EC50", "result": "< 1", "unit": "nM"}]}
